From the domain aggregation screens of Martell et al. (2025)

Assay: soluble fraction after stress (log2 fold change); higher = more stays soluble; pooled small domains, quantitative proteomics
Conditions: stress: 50 degC
How it was run: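 Pooled custom libraries of small protein domains were each held under stress at 50°C. The read-out, high-throughput quantitative proteomics, tracked how much of each protein stayed soluble. This is reported as a base-two log fold change used to indicate aggregation propensity. Higher values mean more protein remains in solution.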

Sequence	soluble fraction (log2)
HMGPEISEDAKVVFDRLKNHDEILLNNFKSEFDLSNKKWDKIIKELRGNDLISIIKSEDGNLFIKP	-0.00901
HMNVAELIEGHEAEIAEVLKEFSLLYLMRLADELGEMTKSSSGNGPFQVLKGLVYEEIARRG	-1.09
HMSMDPYTVLGVNKSSTDSQIKNAYKNLAKQHHPDRGGNEAKFKEISTAYEQIKTAEKRQQYDMSQQF	0.383
HMRRELDSEHKRQEILFAAKRLLLAEGYDATSMSRLAKEAGVAPNTLYWYFKDKDELLIAILDELVAE	-1.72
HMGDYERVPEYKGKLTSDLTMEDSQKFAFRFIWQNSDEDEGKIIDQDPPAGKSVAKGSEIVLYVSNG	0.35
HMTPNRDDEHLQSLRDYYASNRRIPSLQRIAALLGFSSRSAAVKLMGRLADEGFVERTVDDDAWIPGSRFF	-0.808
HMDNPVPVIITDQNFQPQLWKNVGVPTDTLFHELSAANQRKLENLMKTMIQTPLTDNGKISGYAFYSK	0.0665
HMSDRLRPGDMVVVVGKKKRYPVFSAFDIDFVEAGDVGKVLTVKREEVVVGFPKKGEGTFTPSELNIAH	-0.597
HMTRTISKVAKELAINIETVRFYERRGLIEQPPKPELGYRHYPDETVNRIRFIKRAQELGFTLEEIANLLS	-1.75
HMKAPPLTDREKEILRWVAAGLQNKEIAHKLGISLATVRNHIHNILEKLDVHSKLEAVSLAFRQGWVS	-0.0741
HMDIRVAHVDDDMSFGEAFAQARSQVGPGGVFEWHGKLYGTYTAEEWASMSPAERSQYQQAVFN	-0.0545
HMKIKLQATEQQRKTLDELYVQLKKLEPTSKEDLSLLYRLENPHLVSKQEAQGLISIAIGRVGSLAIEQQ	-0.27
HMNNPISMQKLRQVIRLYGQGKGTKSINSMLGVSRNTIKKYLQVYHSSGINYESFLAMSDKELSAVFLV	-0.398
HMQDTVKNVFGAFTIFTDKPFAIGDTINVNGLEGTVVDVGMRSTQILGYDRRITSYPNYKITDSSIVNISS	-0.0701
HMGPRKAGSEATRQKILDAAEILFAERGFHSVSVRDITTEAGVDVALINYHFGSKQLLFETVFMRR	-0.331
HMNQWQLLSEDGAILGTRVLYHPHETEQPFTRSLSGVKIPAHVQSVTIRAGDLVHGFGGREIQMQLPPIV	-0.0987
HMTIRIPEEEYLTRAKRAAQMTAERGLDALFLFGSEGDFQNVRYFTSVTPIWERLGVVITASGKAAMLTGP	-0.0521
HMSEKELTDLIERIKERRLKLEMSYQDLSDATGISKSTLQRYETGYIKKVPINQIEILAKALHTTPSYLMG	-0.238
HMIDEKVQAADKSIEIGNLSPLKGLVTDDEMHELEKLFEKVMALKDFEVNDVGAGRKYIEAYVSFFKFAEG	-0.661
HMAISEEEATNLALERVPGASAQDLRIQLEFDDGVQKYEGDIIYDGKEYDFEIDANTGTFLEWSE	-0.151
HMSDYYEVLGVTRQADAEEIKRAYRRKARQLHPDVAGPGHEEEFKEVTVAYEVLSDPEKRQAYDLGGQDAL	0.179
HMNSVKSPMPGTILGLKVSVGDTVKVGDELLVLESMKMENMINSPIDGTVSKILISEGDSVQHGQELII	0.215
HMLELTGEEEFVIRTLTRQGDLHINALVVETDIPINRMISLLFELEMKGVVKALVGGVYHLLG	-2.04
HMSRYLLPYAFARTQQVLLEEKSGELTLWMHSGSNLGGISEVTRKYAVQHVTHEPMDALLNRISSAYAN	-3.41
HMLPYGDRRRHTDNTISRIRELAAALDDSGIADRLNQDGYVTPEGKPFTYAGVRWIRYKYDISGPYERN	-1.5
HMDKSRPVLRVGDSGDWVSKLQTALLEFGYRVAVDGVFGEHTKSAVVHFQNGRRLIADGVVGNLTWDALL	-2.31
HMKYRLLGENLQTIRKARGMKQQELADQIGINMQSLSKIERGLNYPTFETLEKIMNALGITPNELLSG	-0.461
HMSPAVEDYLEQIHNLIAQKGYARVVDIAGNLKISQASVTNMIQRMDADGLVVYERYRGVVLTETGRK	-1.3
HMFELVKISENIPIRDLAETLKTTPNEIIKELMVFGVLANINQTLNFDLASKVADKLGFEVELL	-0.246
HMAFKDDDVQKAYDRYMDRYGELSVLYSDNGLKVDDDLFYKNNIPPNGKFTKEFFDELYELVNMEFINNY	-0.0827
